Several values for one entry are separate records, joined by “and”; a condition that tells them apart may be missing. Equal values may be shown once.
Key:
[1] = molecular target: the molecule itself; assay: native gel or EMSA; PhastGel gradient 8-25%, room temperature; 1 mg/mL (methods), 2 mg/mL (legend of Fig 1D); Coomassie stained
[2] = molecular target: the molecule itself; assay: AUC; sedimentation equilibrium; tetramer to dimers; 0.5, 0.75 and 1.0 mg/mL; 8,000, 10,000 and 12,000 rpm, 4°C; global fit in SEDPHAT

B1: Trypanosoma brucei selenophosphate synthetase (TbSEPHS2), recombinant full-length (enzyme, UniProt Q38A34 1-393, looked up)
chain: MSEKEGKVIPETNGMKRPRFDPVKLGLPEEFTLTDYTRLKGCSCKVPQPELLALLQSVSTTPGRRDVGMDCSIVKLQHKDETGKPLYMVSTTDFFFPSVEDPYLQGQIGAANVLSDLYSTGIDRCDTVLMLLAASTDMDKTEREVCTQEMMKGFVDHVRLAGSDVTGGQTVMNPWPLIGGIATSVVAESQMIRPTGLQPGDILVLTKPLGCQIAVNLKQWLRRPSPIFEEQIQGKMDSEEIEELYNAAADGMKRLNRMAAALMHSHGAHGATDVTGFGILGHAKNLGSAQKADVCLVLDSLPMYRGAVKASKLMGDKYRLFEGYAAETSGGLLVAFGTREEAEGYIRELYETDGEPAWVVGRVVRREGSAPYALLQKDYKIIEVGAKVNDKII
notes: selenophosphate synthetase SEPHS2 of Trypanosoma brucei, Tb927.10.9410, 393 residues (from the limits of the truncated constructs); also called SPS2; TbSPSH2
With B1 the “stoichiometry N” value [1] was 2 and 4 and the Kd [2] was 161 ± 10 µM.

From paper PMC7595633 (PLoS Neglected Tropical Diseases, 2020)
